Target: the molecule itself
Assay: X-ray crystal structure of GmPDH1-NADP+-citrate, 1.69 A
Description: Crystals of GmPDH1 M219T/N222D formed in 16% (w/v) PEG 8000, 40 mM potassium phosphate dibasic, and 20% (v/v) glycerol. All crystals were flash-frozen in liquid nitrogen with mother liquor supplemented with 25% glycerol as a cryoprotectant.
The GmPDH1 structure was solved by single-wavelength anomalous dispersion (SAD) phasing. Diffraction data collected at beamline 19ID of the Argonne National Laboratory Advanced Photon Source were indexed, integrated, and scaled using HKL3000⁴⁸. SHELX⁴⁹ was used to determine initial SeMet positions and to estimate initial phases from the peak wavelength data set. SeMet positions and parameters were refined in MLPHARE⁵⁰. Solvent flattening was performed with DM⁵¹, and ARP/wARP⁵² was used to build an initial model. Iterative rounds of manual model building and refinement were performed with COOT⁵³ and PHENIX⁵⁴, respectively. The resulting model was used for molecular replacement into the higher resolution native data set using PHASER⁵⁵. Iterative rounds of manual model building and refinement, which included translation-libration-screen (TLS) models, used COOT and PHENIX, respectively. The native GmPDH1 structure was used for molecular replacement to solve the GmPDH1 N222D and GmPDH1 M219T/N222D structures. Each mutant structure was built and refined using the same method as the wild-type enzyme. […]

B1: Glycine max (soybean) prephenate dehydrogenase GmPDH1, wild type (enzyme)
chain: MSTSSSSQSLKIGIVGFGNFGQFLAKTMIKQGHTLTATSRSDYSELCLQMGIHFFRDVSAFLTADIDVIVLCTSILSLSEVVGSMPLTSLKRPTLFVDVLSVKEHPRELLLRELPEDSDILCTHPMFGPQTAKNGWTDHTFMYDKVRIRDEVICSNFIQIFATEGCKMVQMSCEEHDRAAAKSQFITHTIGRTLGEMDIQSTPIDTKGFETLVKLKETMMRNSFDLYSGLFVYNRFARQELENLEHALHKVKETLMIQRTNGEQGHKRTES
notes: also called Gm18g02650; 18g02650; not shown: N-terminal 6x-His tag from the pET28a vector
binding result: binds

— patent publication US20250136952A1 (WISCONSIN ALUMNI RESEARCH FOUNDATION, published 2025)
